Laboratory results as given in patent US11365264B2, “Therapeutic methods and compositions” (INSTITUT PASTEUR, priority 2013, dated 2022).

Assays:
purified HD CD4 T cells [1] = assay: Inhibition of IL-7-induced STAT5 phosphorylation and nuclear translocation; assay type: cell-based, human; details: for effect on IL-7 induced nuclear translocation of phosphoSTAT5 (NT pSTAT5): CD4 T cells, IL-7 stimulation
Method: CD4 T-cells were purified by negative selection as already described (10) then activated with 2 nM recombinant glycosylated human IL-7 (Cytheris) or 40 μg PHA (Sigma). The confocal and STED microscopy used to study cell surface microdomains (MMD) and phospho-STAT5 cellular compartment distribution has already been described (10, 12). FCS analysis of protein diffusion at the surface of living cells has also been described (10, 12
Cells were then plated on polylysine-coated glass slides for 10 min then activated by 15 min IL-7 (2 nM) or not for control (NS), then fixed by PFA (PFA, 1.5%, 15 min at 37° C. followed by 15 min at room temperature) and permeabilization by methanol (90% at −20° C.). Cells were equilibrated one hour in PBS/SVF 5% then phospho-STAT5 was then stained by rabbit anti-STAT5 labelled with goat anti-rabbit-Atto642 and analyzed by FACS or STED microscopy.
VP plasma containing PLA2sGIB was first incubated with purified HD CD4 T cells (20 min) before stimulation by IL-7 (2 nM, 15 min.). Cells were then plated on polylysine coated glass slides before fixation by PFA (1.5%) and permeabilization by methanol (90% at −20° C.). pSTAT5 was then stained by rabbit anti-STAT5 labelled with goat anti-rabbit-Atto642 and analyzed by FACS or pulsed STED microscopy.

purified HD CD4 T cells [2] = assay type: cell-based, human
[3] = Enz Check PLA2 enzymatic assay; details: for enzymatic activity (in words): recombinant PLA2 proteins produced in E. coli; for enzymatic activity of mutant vs recombinant porcine PLA2 GIB: each protein at 200 microM, FIG. 12
Method: The assay was performed with the Enz Check PLA2 assay kit from Life Technologies (ref.: E102147). […] The PLA2 activity is followed by the intensity increase of a single wavelength at 515 nm. PLA2 is detected by changes in the emission intensity ratio at 515/575 nm with excitation at 460 nm. Specific activities are expressed in amount of fluorescent substrate (U) obtained per second and per μg of enzyme in solution.
Each protein was used at 200 microM.

human GIBsPLA2 = molecular target: T1, human GIBsPLA2 (Homo sapiens, UniProt P04054); assay: Inhibitor test: inhibition of IL-7-induced pSTAT5 nuclear translocation by viremic plasma or PLA2 GIB; assay type: cell-based; details: 100 nM inhibitor, human PLA2G1B, FIG. 16
T1 construct: from tissue
T1 sequence (P04054 23-148): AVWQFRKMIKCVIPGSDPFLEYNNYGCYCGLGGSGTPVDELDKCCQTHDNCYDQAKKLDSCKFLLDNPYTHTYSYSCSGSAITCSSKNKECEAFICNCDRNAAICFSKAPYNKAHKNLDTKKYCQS

Q: Which results are given for “commercial purified porcine GIBsPLA2: commercial purified porcine GIBsPLA2”?
A: effect on IL-7 induced nuclear translocation of phosphoSTAT5 (NT pSTAT5) (purified HD CD4 T cells [1]): block IL-7 pSTAT5 nuclear translocation; induction of abnormal membrane microdomains (aMMD) (purified HD CD4 T cells [2]): induces abnormal MDM

Q: For “hPLA2 IB: recombinant human PLA2 IB (in E. coli)”, which Specific activity [3] is on record?
A: Its Specific activity is 10694.57 U/ug/s.

Q: What about the “enzymatic activity (in words)” value [3] of the same molecule?
A: The value was “potent enzymatic activity”.

Q: With “hPLA2 IID: recombinant human PLA2 IID (E. coli)” as the molecule, how does the Specific activity [3] read?
A: Its Specific activity is 445.21 U/ug/s.

Q: What about the “enzymatic activity (in words)” value [3] of the same molecule?
A: Its value is “not active”.

Q: Which results are given for “mutant H48Q: porcine PLA2 GIB mutant, histidine at position 48 replaced by glutamine, produced in E. coli”?
A: effect on IL-7 induced nuclear translocation of phosphoSTAT5 (NT pSTAT5) (purified HD CD4 T cells [1]): lost the ability; induction of abnormal membrane microdomains (aMMD) (purified HD CD4 T cells [2]): lost the ability; enzymatic activity of mutant vs recombinant porcine PLA2 GIB [3]: lost all of its enzymatic activity; enzymatic activity of mutant vs recombinant porcine PLA2 GIB ([3]; listed as pPLA2GIB H48Q): Absence of activity

Q: Which Specific activity [3] does the source give for “pPLA2 IB: recombinant porcine PLA2 IB (in E. coli)” here?
A: The Specific activity was 10353.57 U/ug/s.

Q: For “ppPLA2 IB: Purified porcine pancreas PLA2 IB”, which Specific activity [3] is on record?
A: The Specific activity was 7694.31 U/ug/s.

B1: hPLA2 IIA: recombinant human PLA2 IIA (in E. coli) (protein, UniProt P14555 21-144, looked up)
Phospholipase A2, membrane …: NLVNFHRMIKLTTGKEAALSYGFYGCHCGVGGRGSPKDATDRCCVTHDCCYKRLEKRGCGTKFLSYKFSNSGSRITCAKQDSCRSQLCECDKAAATCFARNKTTYNKKYQYYSNKHCRGSTPRC
Q: What does the source list for B1?
A: Specific activity [3]: 214.93 U/ug/s; enzymatic activity (in words) [3]: not active

B2: recombinant PLA2 soluble receptor: soluble murine receptor specific for PLA2 GIB, SEQ ID NO: 22 (protein)
chain: MVQWLAMLQLLWLQQLLLLGIHQGIAQDLTHIQEPSLEWRDKGIFIIQSESLKTCIQAGKSVLTLENCKQPNEHMLWKWVSDDHLFNVGGSGCLGLNISALEQPLKLYECDSTLISLRWHCDRKMIEGPLQYKVQVKSDNTVVARKQIHRWIAYTSSGGDICEHPSRDLYTLKGNAHGMPCVFPFQFKGHWHHDCIREGQKEHLLWCATTSRYEEDEKWGFCPDPTSMKVFCDATWQRNGSSRICYQFNLLSSLSWNQAHSSCLMQGGALLSIADEDEEDFIRKHLSKVVKEVWIGLNQLDEKAGWQWSDGTPLSYLNWSQEITPGPFVEHHCGTLEVVSAAWRSRDCESTLPYICKRDLNHTAQGILEKDSWKYHATHCDPDWTPFNRKCYKLKKDRKSWLGALHSCQSNDSVLMDVASLAEVEFLVSLLRDENASETWIGLSSNKIPVSFEWSSGSSVIFTNWYPLEPRILPNRRQLCVSAEESDGRWKVKDCKERLFYICKKAGQVPADEQSGCPAGWERHGRFCYKIDTVLRSFEEASSGYYCSPALLTITSRFEQAFITSLISSVAEKDSYFWIALQDQNNTGEYTWKTVGQREPVQYTYWNTRQPSNRGGCVVVRGGSSLGRWEVKDCSDFKAMSLCKTPVKIWEKTELEERWPFHPCYMDWESATGLASCFKVFHSEKVLMKRSWREAEAFCEEFGAHLASFAHIEEENFVNELLHSKFNWTQERQFWIGFNRRNPLNAGSWAWSDGSPVVSSFLDNAYFEEDAKNCAVYKANKTLLPSNCASKHEWICRIPRDVRPKFPDWYQYDAPWLFYQNAEYLFHTHPAEWATFEFVCGWLRSDFLTIYSAQEQEFIHSKIKGLTKYGVKWWIGLEEGGARDQIQWSNGSPVIFQNWDKGREERVDSQRKRCVFISSITGLWGTENCSVPLPSICKRVKIWVIEKEKPPTQPGTCPKGWLYFNYKCFLVTIPKDPRELKTWTGAQEFCVAKGGTLVSIKSELEQAFITMNLFGQTTNVWIGLQSTNHEKWVNGKPLVYSNWSPSDIINIPSYNTTEFQKHIPLCALMSSNPNFHFTGKWYFDDCGKEGYGFVCEKMQDTLEHHVNVSDTSAIPSTLEYGNRTYKIIRGNMTWYAAGKSCRMHRAELASIPDAFHQAFLTVLLSRLGHTHWIGLSTTDNGQTFDWSDGTKSPFTYWKDEESAFLGDCAFADTNGRWHSTACESFLQGAICHVVTETKAFEHPGLCSETSVPWIKFKGNCYSFSTVLDSRSFEDAHEFCKSEGSNLLAIRDAAENSFLLEELLAFGSSVQMVWLNAQFDNNNKTLRWFDGTPTEQSNWGLRKPDMDHLKPHPCVVLRIPEGIWHFTPCEDKKGFICKMEAGIPAVTAQPEKGLSHSIVPVTVTLTLIIALGIFMLCFWIYKQKSDIFQRLTGSRGSYYPTLNFSTAHLEENILISDLEKNTNDEEVRDAPATESKRGHKGRPICISP
modifications: soluble receptor
Q: Which “effect on activity of PLA2sGIB on NT of pSTAT5” value (human GIBsPLA2) does the source give for B2 here?
A: The value was “significantly block the negative effect of PLA2sGIB on the NT of pSTAT5”.

Q: What about the “effect on activity of PLA2sGIB on NT of pSTAT5” value (human GIBsPLA2; listed as sMR) of the same molecule?
A: The value was “inhibits the activity of human PLA2G1B”.

B3: hPLA2 X: recombinant human PLA2 X (in E. coli) (protein, UniProt O15496 43-165, looked up)
Group 10 secretory …: GILELAGTVGCVGPRTPIAYMKYGCFCGLGGHGQPRDAIDWCCHGHDCCYTRAEEAGCSPKTERYSWQCVNQSVLCGPAENKCQELLCKCDQEIANCLAQTEYNLKYLFYPQFLCEPDSPKCD
Q: For B3, which Specific activity [3] is on record?
A: The Specific activity was 3318.97 U/ug/s.

Q: What about the “enzymatic activity (in words)” value [3] of the same molecule?
A: The value was “very limited activity”.

B4: IL-7: recombinant glycosylated human IL-7 (Cytheris) (protein, UniProt P13232 26-177, looked up)
Interleukin-7: DCDIEGKDGKQYESVLMVSIDQLLDSMKEIGSNCLNNEFNFFKRHICDANKEGMFLFRAARKLRQFLKMNSTGDFDLHLLKVSEGTTILLNCTGQVKGRKPAALGEAQPTKSLEENKSLKEQKKLNDLCFLKRLLQEIKTCWNKILMGTKEH
modifications: glycosylated
Q: For B4, which “phospho-STAT5 found in the nucleus” value (purified HD CD4 T cells [1]; HD CD4 T cells, five minutes following IL-7 stimulation) is on record?
A: Its value is 50%.

Q: What about the MMD size (purified HD CD4 T cells [2]) of the same molecule?
A: The MMD size was 90 nm.

Q: And the “number of MMD per CD4 T cell” value (purified HD CD4 T cells [2])?
A: The value was 300 MMD/cell.
